Here are results for one sequence from article PMC6017093.

Data set [1] concerns the target T1, CD20 (B-lymphocyte antigen), expressed on HEK293T cells (human) (UniProt P11836).
T1 sequence: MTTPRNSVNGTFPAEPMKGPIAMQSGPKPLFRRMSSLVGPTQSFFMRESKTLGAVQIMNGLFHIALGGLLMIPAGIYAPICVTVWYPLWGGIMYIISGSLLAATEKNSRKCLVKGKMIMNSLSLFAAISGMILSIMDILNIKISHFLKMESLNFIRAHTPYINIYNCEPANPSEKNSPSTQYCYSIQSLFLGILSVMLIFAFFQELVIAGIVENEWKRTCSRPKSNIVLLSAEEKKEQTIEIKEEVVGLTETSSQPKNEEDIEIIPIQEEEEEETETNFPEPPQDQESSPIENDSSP
Kind of data set: flow cytometry (cell binding). Particulars: no shift on untransfected HEK293T, DPBS with 4.5 g/L glucose, 5 mM MgCl2, 0.1 mg/mL yeast tRNA, 1 g/L BSA (10% FBS in flow assay), on ice 30 min, aptamer heated 95 C 5 min and snap-cooled, pH …. A general note: Flow cytometry measures light scatter and fluorescence of single cells or particles in a stream.

Data set [2] deals with T2, CD20 on Pre-B ALL bone marrow cells (human) (UniProt P11836).
T2 sequence: T1 sequence
Kind of data set: flow cytometry (cell binding). Particulars: T-ALL (CD20-low) control 1.5%, DPBS with 4.5 g/L glucose, 5 mM MgCl2, 0.1 mg/mL yeast tRNA, 1 g/L BSA (10% FBS in flow assay), on ice 30 min, aptamer heated 95 C 5 min and snap-cooled, pH ….

pKd: −log10 of the molar value.

For orientation: pKd means the negative decadic logarithm of the Kd, by convention in mol/L.

For the sequence “ATACCAGCTTATTCAATTGGAATAAGGGGGTATTACTGTCTGGTAAACAAACGCTATGCGAGGGGATTCAAGATAGTAAGTGCAATCT [AP-1]”, the negative-log Kd (pKd) in data set [1] is 7.01. The binding signal (% positive cells) in data set [2] turned out to be 71.4.
